Test [1] has as its target SARS-COV-2 Spike Omicron BA.1 (on pVSV-Luc-SARS-COV-2-S pseudovirus) (SARS-COV-2) (UniProt P0DTC2).
In test [2] the target is SARS-COV-2 Spike Omicron BA.2 (on pVSV-Luc-SARS-COV-2-S pseudovirus) (SARS-COV-2) (UniProt P0DTC2).

Turning to “ACE2 v2.4 (615)-Fc (IgG) (from UniProt Q9BYF1) (Fc fusion)”, the IC50 (read off the curve) in test [1] was found to be 0.02 nM; in test [2], 0.04 nM.

(Values after patent publication US20240307512A1.)
